This assay deals with T1, TEAD.
T1 chain: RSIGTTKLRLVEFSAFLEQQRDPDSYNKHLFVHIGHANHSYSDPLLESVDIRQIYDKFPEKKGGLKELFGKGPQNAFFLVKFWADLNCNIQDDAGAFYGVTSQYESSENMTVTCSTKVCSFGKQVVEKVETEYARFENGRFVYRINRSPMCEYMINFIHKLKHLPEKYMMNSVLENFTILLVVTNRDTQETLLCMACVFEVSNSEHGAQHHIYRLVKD
Nature of the assay: IC50 for TEAD binding (TR-FRET test). On the technique in general: TR-FRET usually uses a lanthanide donor and a delayed reading to cut background.

Bridges are numbered along the chain shown (N, C = ends). Where no end group is shown, it is not given here. [ ]: non-standard residue; d: D form. hCys = N[C@@H](CCS)C(=O)O

In turn, VPM[hCys]LRKLPCSFCDPPE (disulfide 4-13) [polypeptide represented by SEQ ID NO.: 9] displayed an IC50 of 25 nM.

VPMCLRKLPESFCHPPE (disulfide 4-13) [polypeptide represented by SEQ ID NO.: 8]: the IC50 came out at 28 nM.

A word on the IC50: it is the midpoint of a concentration-inhibition curve. Lower therefore signals greater potency.

For the origin of these results see patent US20160272690A1 (BAO KANG BIOMEDICAL HEALTHCARE, published 2016).
